Legend:
[1] = molecular target: Orsay virus capsid protein (CP) (Orsay virus); experiment: co-sedimentation; infectious Orsay virions from culture supernatant of infected rde-1 worms, Triton X-100 treated, pelleted, banded on a 25% to 47.5% iodixanol step gradient (~1.3 g/ml); SDS-PAGE and Western blot with anti-CP antiserum, band intensities measured with Fiji
[2] = molecular target: Orsay δ(1–101) (Orsay virus); experiment: crystal structure; Orsay δ(1–101) crystallised by hanging drop, 0.1 M ammonium sulfate, 0.1 M sodium acetate pH 4.6, 25% PEG 4000, 20°C; space group P212121, five chains in the asymmetric unit; 1.8 Å
[3] = molecular target: full-length Le Blanc δ (Le Blanc virus); experiment: intact-protein LC-MS (reverse phase C3 column, Orbitrap); purified δ diluted to 200 ng/μl in 2% ACN, 0.1% FA; ZORBAX C3-300SB column, gradient 5% to 95% B; Orbitrap Fusion Lumos, positive mode; observed mass compared with the theoretical pentamer mass
[4] = molecular target: full-length Santeuil δ (Santeuil virus); experiment: as above

Substance: Orsay CP-δ fusion protein (natural protein)
- pentameric CP-δ fibers per viral particle (fibers per viral particle) [1]: 1.1

Substance: Orsay δ(1–101) (domain or fragment)
- stoichiometry N [2]: 5

Substance: full-length Le Blanc δ (natural protein)
- stoichiometry N [3]: 5

Substance: full-length Santeuil δ (natural protein)
- stoichiometry N [4]: 5
